From patent US11147834B2 (MiZ Company Limited, priority 2018, dated 2021)

Tests used:
[1] = compared with H2; cited from earlier work
[2] = tested on: (wet) age-related macular degeneration; test: Case of a patient with (wet) age-related macular degeneration: hydrogen aspiration and hydrogen water, Lucentis and laser therapy; type: in vivo, human
Protocol: A patient felt itchiness on the left eye in September 2013, took their glasses off, and covered their left eye.
Lucentis (R) was injected in the vitreous body of the patient and the patient received laser therapy after 1 week. After additional 1 month, Lucentis (R) was re-injected.
After 10 months, the injection was discontinued and only a test was continued. Thereafter, the patient visited the hospital once in three months and their pathological conditions were checked by a test.
Then, the patient received the second laser therapy, and Lucentis (R) injection approximately once a month.
The doctor recommended that the patient receive another laser therapy if the result of injection in February was bad.
After that, the patient received Lucentis (R) injection. One week after the injection, detailed fundus examination was conducted to check their pathological conditions.
Then, the patient daily drank 500 ml/morning and 500 ml/night of the water for 1 month.
When the patient received Lucentis (R) injection on Apr. 11, 2018, their pathological conditions were checked. […] However, after one week, the patient was re-examined.

[2H][2H] [D2, deuterium]
superoxide-scavenging action [1]: stronger superoxide-scavenging action than H2

[HH] [hydrogen, molecular hydrogen]
visual acuity of the eye with age-related macular degeneration ([2]; after aspirating hydrogen and drinking hydrogen water, improved from 0.1): 1.2
choroidal neovascularization (detailed fundus examination) ([2]; gaseous hydrogen about 4% by volume aspirated about 2 hours x 3 (7-day interval), February 2018, then Lucentis injection, examined one week after the injection): degeneration

B1: ranibizumab (antibody, chains of the INN, looked up, V domains shown)
VH: EVQLVESGGGLVQPGGSLRLSCAASGYDFTHYGMNWVRQAPGKGLEWVGWINTYTGEPTYAADFKRRFTFSLDTSKSTAYLQMNSLRAEDTAVYYCAKYPYYYGTSHWYFDVWGQGTLVTVSS
VL: DIQLTQSPSSLSASVGDRVTITCSASQDISNYLNWYQQKPGKAPKVLIYFTSSLHSGVPSRFSGSGSGTDFTLTISSLQPEDFATYYCQQYSTVPWTFGQGTKVEIK
modifications: Fab
notes: an anti-VEGF drug, ranibizumab; Novartis Pharma K. K
effects of laser therapy and Lucentis injection ([2]; during three years before initiation of hydrogen gas inhalation): no effects
therapeutic effect ([2]; first course: intravitreal injection, laser therapy after 1 week, re-injection after additional 1 month): therapeutic effect appeared
test result after injection ([2]; injection in January 2018): very bad
treatment outcome ([2]; same treatment repeated two years later after worsening): not good
